The Kd is the equilibrium constant for the complex coming apart. By koff is commonly meant the first-order rate constant of dissociation. In general, kon refers to the rate constant with which the complex forms.

Consider seven molecules from patent US20230203155A1 (ALMAC DISCOVERY, published 2023).

T1: Peptide 4 (human)
T1 construct: linear ROR1 ECD peptide
T1 peptide: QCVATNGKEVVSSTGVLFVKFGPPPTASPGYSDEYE

T2: Peptide 2 (human)
T2 construct: linear ROR1 ECD peptide; insoluble in PBS
T2 peptide: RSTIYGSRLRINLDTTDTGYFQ

T3: Peptide 1 (human)
T3 construct: linear ROR1 ECD peptide
T3 peptide: YMESLHMQGEIENQI

T4: Peptide 3 (human)
T4 construct: linear ROR1 ECD peptide
T4 peptide: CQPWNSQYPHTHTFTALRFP

B1: Peptide 5 (peptide)
peptide: RSTIYGSRLRIRNLDTTDTGYFQ
notes: linear ROR1 ECD peptide
B2: BA11-2V HisMyc (VNAR)
chain: TRVDQSPSSLSASVGDRVTITCVLTDTSYPLYSTYWYRKNPGSSNKEQISISGRYSESVNKGTKSFTLTISSLQPEDSATYYCRAMSTNIWTGDGAGTKVEIKGGGGSGGGGSGGGGSGGGGSGGGGSTRVDQTPRTATKETGESLTINCVLTDTSYGLYSTSWFRKNPGTTDWERMSIGGRYVESVNKGAKSFSLRIKDLTVADSATYYCKAQSLAISTRSYWYDGAGTVLTVNQASGAHHHHHHGAEFEQKLISEEDL
B3: P3A1 dimer, no tag (VNAR)
chain: TRVDQTPRTATKETGESLTINCVLTDTSYGLYSTSWFRKNPGTTDWERMSIGGRYVESVNKGAKSFSLRIKDLTVADSATYYCKAREARHPWLRQWYDGAGTVLTVNGGGGSGGGGSGGGGSGGGGSGGGGSTRVDQTPRTATKETGESLTINCVLTDTSYGLYSTSWFRKNPGTTDWERMSIGGRYVESVNKGAKSFSLRIKDLTVADSATYYCKAREARHPWLRQWYDGAGTVLTVN
B4: E7 his myc (VNAR)
VNAR: TRVDQTPRTATKETGESLTINCVVTGAKYGLAATYWYRKNPGSSNQERISISGRYVESVNKRTMSFSLRIKDLTVADSATYYCKAYPWAMWGQWYDGAGTVLTVNQ
notes: VNAR
B5: P3A1-[G4S]5-P3A1 his myc (VNAR)
chain: TRVDQTPRTATKETGESLTINCVLTDTSYGLYSTSWFRKNPGTTDWERMSIGGRYVESVNKGAKSFSLRIKDLTVADSATYYCKAREARHPWLRQWYDGAGTVLTVNGGGGSGGGGSGGGGSGGGGSGGGGSTRVDQTPRTATKETGESLTINCVLTDTSYGLYSTSWFRKNPGTTDWERMSIGGRYVESVNKGAKSFSLRIKDLTVADSATYYCKAREARHPWLRQWYDGAGTVLTVNQASGAHHHHHHGAEFEQKLISEEDL
notes: VNAR homodimer by genetic fusion; also called P3A1-P3A1; P3A1 dimer
B6: P3A1 his myc (VNAR)
VNAR: TRVDQTPRTATKETGESLTINCVLTDTSYGLYSTSWFRKNPGTTDWERMSIGGRYVESVNKGAKSFSLRIKDLTVADSATYYCKAREARHPWLRQWYDGAGTVLTVNQ
notes: VNAR; also called P3A1 6xHis myc
B7: CPF7-[G4S]5-CPF7 his myc (VNAR)
chain: TRVDQTPRTATKETGESLTINCVVTGAKYGLFATYWYRKNPGSSNQERISISGRYVESVNKRTMSFSLRIKDLTVADSATYYCKAVFMPQHWHPAAHWYDGAGTVLTVNGGGGSGGGGSGGGGSGGGGSGGGGSTRVDQTPRTATKETGESLTINCVVTGAKYGLFATYWYRKNPGSSNQERISISGRYVESVNKRTMSFSLRIKDLTVADSATYYCKAVFMPQHWHPAAHWYDGAGTVLTVNQASGAHHHHHHGAEFEQKLISEEDL
notes: VNAR homodimer; also called CPF7-CPF7 dimer

The target of one assay is T5, D3 his myc.
T5 construct: VNAR; made in E. coli and in HEK293 (expression system under assay); also called D3 WT
As to the kind of experiment: competition ELISA: VNAR pre-incubated with peptide 5, residual binding to coated huROR1-Fc [continued]. For orientation: ELISA stands for enzyme-linked immunosorbent assay.

The assay “P3A1 his myc” concerns the target B6. The description is as above.
Assay [1] deals with T6, B1 VNAR with C-terminal His6Myc tag.
T6 construct: VNAR, E. coli; also called B1 his myc; B1HisMyc monomer
The assay is described as above.

Another assay concerns the target T7, D3-[G4S]5-D3 his myc.
T7 construct: VNAR homodimer by genetic fusion; also called D3-D3; D3 dimer
The assay is described as above.

The next assay deals with T8, human serum albumin (human, UniProt P02768 25-609).
T8 construct: also called HSA
Nature of the assay: ELISA at fixed concentration.

Assay [2] addresses T9, human ROR1-hFc fusion protein (extracellular domain) (human).
T9 construct: Whole entry 'human ROR1-Fc (CHO)'; also called hROR1; huROR1-Fc
Nature of the assay: SPR, ROR1-hFc on chip.

The target in assay [3] is T10, human ROR2-hFc fusion protein (extracellular domain) (human).
T10 construct: Whole entry 'human ROR2-Fc (CHO)'; also called hROR2
Nature of the assay: SPR, ROR2-hFc on chip. For orientation: Surface plasmon resonance follows binding to a sensor surface in real time, without labels.

In assay [4] the target is T10, human ROR2-hFc fusion protein …. Nature of the assay: SPR, ROR2-hFc on chip. This is another data set of the same source.
Assay [5] addresses T11, mouse ROR1-Fc fusion protein (mouse).
T11 construct: Whole entry 'mouse ROR1-Fc (CHO)'; also called mROR1
Nature of the assay: SPR, mouse ROR1 on chip.

For assay [6], the target named is T12, human ROR1 on the surface of ROR1hi human cancer cell lines (human, UniProt Q01973 30-937).
T12 construct: whole, on cells; Cell line is named under assay; also called cell surface ROR1
Nature of the assay: flow cytometry on A549 (ROR1hi) cells, PE-anti Myc tag Ab. (A flow cytometer gives signals particle by particle.)

Assay [7] concerns the target T9, human ROR1-hFc fusion protein …. Nature of the assay: SPR, ROR1-hFc on chip. This is another data set of the same source.
Assay [8] addresses T10, human ROR2-hFc fusion protein …. Nature of the assay: SPR, ROR2-hFc on chip. This is another data set of the same source.
For assay [9], the target named is T9, human ROR1-hFc fusion protein …. As to the kind of experiment: Octet or SPR, hROR1.
Assay [10] addresses T13, recombinant human ROR1 (hROR1), construct not stated (human, UniProt Q01973 30-403, limits assumed). Nature of the assay: SPR, hROR1 on chip.
For assay [11], the target named is T13, recombinant human ROR1 (hROR1), …. Nature of the assay: SPR, hROR1 on chip with competitor P3A1 dimer pre-captured.
For assay [12], the target named is T9, human ROR1-hFc fusion protein …. As to the kind of experiment: SPR, human ROR1 ECD-Fc on chip.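 Note: SPR binding kinetics of VNAR and VNAR-Fc molecules run at a range of concentrations over immobilised target, rate and affinity constants fitted with QDat software.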
Assay [13] addresses T14, rat ROR1-Fc fusion protein (rat).
T14 construct: Whole entry 'rat ROR1-Fc (CHO)'; also called rROR1
As to the kind of experiment: SPR, rat ROR1 on chip.

Assay [14] deals with T9, human ROR1-hFc fusion protein …. As to the kind of experiment: SPR, ROR1-hFc on chip. This is another data set of the same source.
The target in assay [15] is T13, recombinant human ROR1 (hROR1), …. As to the kind of experiment: SPR, hROR1 on chip with competitor B1 pre-captured.
Assay [16] deals with T12, human ROR1 on the surface of ROR1hi …. As to the kind of experiment: flow cytometry, A549 (ROR1hi) cells, 4°C.
The target in assay [17] is T13, recombinant human ROR1 (hROR1), …. As to the kind of experiment: SPR, hROR1 on chip. The source holds these as a separate data set.
The assay “Peptide 5” deals with B1. As to the kind of experiment: direct ELISA on coated peptide 5 [continued].
Assay [18] deals with T10, human ROR2-hFc fusion protein …. Nature of the assay: direct ELISA, panel Binding to human ROR2-Fc.
The target of assay [19] is T15, human ROR1 (FZ domain)-Fc (human).
T15 construct: also called Fz-Fc; Frizzle domain
As to the kind of experiment: direct ELISA on coated Frizzled domain, panel Binding of P3A1 to human ROR1 domains.

For the next assay, the target named is T1, Peptide 4. As to the kind of experiment: direct ELISA on coated peptide (in PBS), panel P3A1 direct binding ELISA.
For another assay, the target named is T2, Peptide 2. Described as above.
The target in a further assay is T3, Peptide 1. Described as above.
The next assay has as its target T4, Peptide 3. Described as above.
For a further assay, the target named is T16, Fz-Kr-Fc.
T16 construct: also called human ROR1 (FZKR domains)-Fc (CHO)
Nature of the assay: analytical SEC and SDS-PAGE of fractions.

In assay [20] the target is T12, human ROR1 on the surface of ROR1hi …. As to the kind of experiment: flow cytometry, A549 (ROR1hi) cells.

T14 sequence (chain, as listed by the source limits assumed): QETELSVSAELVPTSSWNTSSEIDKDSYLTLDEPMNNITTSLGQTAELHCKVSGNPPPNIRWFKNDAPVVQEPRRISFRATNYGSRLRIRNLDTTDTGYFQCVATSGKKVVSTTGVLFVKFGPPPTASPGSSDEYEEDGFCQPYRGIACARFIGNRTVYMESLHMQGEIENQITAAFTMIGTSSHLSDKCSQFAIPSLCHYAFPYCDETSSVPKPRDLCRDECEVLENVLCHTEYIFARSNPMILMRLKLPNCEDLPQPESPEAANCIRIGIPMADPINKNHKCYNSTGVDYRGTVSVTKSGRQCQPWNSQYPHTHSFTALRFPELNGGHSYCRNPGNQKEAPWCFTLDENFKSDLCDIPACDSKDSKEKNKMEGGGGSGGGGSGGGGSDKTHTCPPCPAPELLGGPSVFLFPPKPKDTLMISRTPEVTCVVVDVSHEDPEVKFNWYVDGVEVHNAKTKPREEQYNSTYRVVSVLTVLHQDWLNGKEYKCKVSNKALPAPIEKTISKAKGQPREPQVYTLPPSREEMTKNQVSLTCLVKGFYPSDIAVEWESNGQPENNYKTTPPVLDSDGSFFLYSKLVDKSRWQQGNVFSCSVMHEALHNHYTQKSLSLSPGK
T10 sequence (chain, as listed by the source limits assumed): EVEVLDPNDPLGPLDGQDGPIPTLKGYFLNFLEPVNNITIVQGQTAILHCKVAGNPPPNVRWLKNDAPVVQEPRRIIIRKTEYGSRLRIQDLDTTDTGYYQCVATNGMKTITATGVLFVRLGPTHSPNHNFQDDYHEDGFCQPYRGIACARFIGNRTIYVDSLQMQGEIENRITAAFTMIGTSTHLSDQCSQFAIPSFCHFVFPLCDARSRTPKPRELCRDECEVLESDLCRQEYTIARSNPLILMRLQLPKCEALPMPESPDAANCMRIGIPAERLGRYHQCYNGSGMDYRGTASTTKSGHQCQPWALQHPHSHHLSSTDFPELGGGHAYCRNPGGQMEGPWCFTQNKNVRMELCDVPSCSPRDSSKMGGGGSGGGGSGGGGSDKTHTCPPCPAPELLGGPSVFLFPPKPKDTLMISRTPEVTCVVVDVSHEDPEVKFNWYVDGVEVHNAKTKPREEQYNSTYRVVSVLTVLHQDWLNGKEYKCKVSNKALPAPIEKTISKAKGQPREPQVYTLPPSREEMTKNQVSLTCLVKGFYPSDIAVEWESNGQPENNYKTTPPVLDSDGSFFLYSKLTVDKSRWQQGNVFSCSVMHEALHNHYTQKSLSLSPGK
T11 sequence (chain, as listed by the source limits assumed): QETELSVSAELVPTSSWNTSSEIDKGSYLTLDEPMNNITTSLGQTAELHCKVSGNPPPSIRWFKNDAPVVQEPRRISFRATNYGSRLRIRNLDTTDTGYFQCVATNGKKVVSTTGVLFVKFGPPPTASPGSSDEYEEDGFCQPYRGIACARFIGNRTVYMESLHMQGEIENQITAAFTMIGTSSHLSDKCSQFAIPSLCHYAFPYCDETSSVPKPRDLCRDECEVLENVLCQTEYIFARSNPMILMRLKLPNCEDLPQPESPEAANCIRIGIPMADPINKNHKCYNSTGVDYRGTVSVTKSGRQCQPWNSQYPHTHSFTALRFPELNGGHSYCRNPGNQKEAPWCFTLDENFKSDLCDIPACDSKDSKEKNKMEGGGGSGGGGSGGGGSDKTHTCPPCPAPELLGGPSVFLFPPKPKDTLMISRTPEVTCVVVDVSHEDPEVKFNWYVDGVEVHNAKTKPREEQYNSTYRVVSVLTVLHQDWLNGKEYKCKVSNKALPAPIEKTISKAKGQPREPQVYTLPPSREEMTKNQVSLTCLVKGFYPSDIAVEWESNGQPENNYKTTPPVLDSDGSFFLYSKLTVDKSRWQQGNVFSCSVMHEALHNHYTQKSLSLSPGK
T9 sequence (chain, as listed by the source limits assumed): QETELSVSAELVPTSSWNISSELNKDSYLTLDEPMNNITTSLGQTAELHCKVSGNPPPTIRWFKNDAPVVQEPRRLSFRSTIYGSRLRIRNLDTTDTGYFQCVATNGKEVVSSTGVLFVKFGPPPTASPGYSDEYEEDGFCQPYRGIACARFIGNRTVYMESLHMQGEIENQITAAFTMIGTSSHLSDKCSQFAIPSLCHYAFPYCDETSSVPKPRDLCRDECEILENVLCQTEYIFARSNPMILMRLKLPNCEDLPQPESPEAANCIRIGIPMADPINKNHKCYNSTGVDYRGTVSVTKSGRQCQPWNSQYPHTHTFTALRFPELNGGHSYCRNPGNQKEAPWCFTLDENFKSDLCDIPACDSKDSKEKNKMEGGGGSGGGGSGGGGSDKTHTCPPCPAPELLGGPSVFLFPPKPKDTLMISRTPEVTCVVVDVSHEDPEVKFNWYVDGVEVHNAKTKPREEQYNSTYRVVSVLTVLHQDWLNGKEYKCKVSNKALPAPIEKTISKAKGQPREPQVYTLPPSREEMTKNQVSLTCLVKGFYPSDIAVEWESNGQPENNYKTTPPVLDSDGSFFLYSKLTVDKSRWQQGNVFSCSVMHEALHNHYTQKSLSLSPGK
T15 sequence (chain, as listed by the source limits assumed): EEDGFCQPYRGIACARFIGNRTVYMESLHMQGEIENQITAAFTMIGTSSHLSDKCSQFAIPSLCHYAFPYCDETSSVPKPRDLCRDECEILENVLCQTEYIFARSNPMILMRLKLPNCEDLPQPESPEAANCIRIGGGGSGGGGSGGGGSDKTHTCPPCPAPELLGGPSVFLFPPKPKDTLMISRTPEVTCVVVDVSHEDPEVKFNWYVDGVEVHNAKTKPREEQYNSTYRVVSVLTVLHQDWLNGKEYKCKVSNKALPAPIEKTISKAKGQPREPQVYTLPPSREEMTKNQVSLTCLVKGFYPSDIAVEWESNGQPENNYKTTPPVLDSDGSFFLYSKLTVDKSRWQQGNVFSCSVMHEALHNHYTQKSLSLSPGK
T16 sequence (Fc fusion chain, as listed by the source): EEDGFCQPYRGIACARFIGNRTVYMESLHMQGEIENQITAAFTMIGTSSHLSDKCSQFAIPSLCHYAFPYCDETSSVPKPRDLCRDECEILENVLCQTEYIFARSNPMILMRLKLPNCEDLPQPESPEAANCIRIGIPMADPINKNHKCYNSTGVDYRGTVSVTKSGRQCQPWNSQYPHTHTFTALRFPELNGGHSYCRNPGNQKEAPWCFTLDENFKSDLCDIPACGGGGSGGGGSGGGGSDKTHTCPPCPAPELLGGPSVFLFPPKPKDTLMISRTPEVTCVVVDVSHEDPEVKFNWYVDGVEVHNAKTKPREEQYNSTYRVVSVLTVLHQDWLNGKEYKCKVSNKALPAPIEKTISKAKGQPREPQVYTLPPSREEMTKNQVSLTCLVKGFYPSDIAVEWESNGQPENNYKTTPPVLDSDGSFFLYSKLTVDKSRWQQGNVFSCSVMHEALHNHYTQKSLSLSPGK

As for B1, the binding result (with D3 his myc; with P3A1 his myc; in [1]; with D3-[G4S]5-D3 his myc) was “no binding (tested: 1000 nM)” in each case.

Take B2: in the assay with human serum albumin, the binding result is listed as “binds”.

For B3, in assay [2], binding was put at a Kd of 0.36 nM, the koff worked out at 0.000598 s⁻¹ and the on-rate (kon) was 1.67e+06 M⁻¹ s⁻¹. Also, in assay [3], the binding result is reported as “no binding”.

Consider B4, for which the binding result in assay [4] is recorded as “no binding”. For the same molecule, in [5], binding was characterised by a dissociation constant (Kd) of 1.4 nM, the koff was 0.002 s⁻¹ and the kon is 1.41e+06 M⁻¹ s⁻¹. Besides, the binding result in [6] is on record as “binds”. In assay [7], binding was put at a Kd of 11.1 nM, the koff worked out at 0.0118 s⁻¹ and the kon turned out to be 1.11e+06 M⁻¹ s⁻¹.

For the molecule B5, the binding result in [8] was “no binding”. Further, the Kd in assay [9] came out at 0.3 nM; in assay [5], 0.396 nM; in [10], 0.385 nM; in assay [11], 3.08 nM; in assay [12], 0.3 nM; in [13] it was 0.57 nM. Moreover, the Kd in [14] amounted to 1.61 nM; in assay [2], 0.35 nM; in assay [17], 0.538 nM; in assay [7], 0.3 nM. Besides, the koff in assay [5] is 0.00145 s⁻¹; in [10] it was 0.000628 s⁻¹; in assay [11] it was 0.00226 s⁻¹; in assay [12], 0.00117 s⁻¹; in assay [13] it was 0.00173 s⁻¹; in [14], 0.00296 s⁻¹. The koff in [15] amounted to 0.000536 s⁻¹; in assay [2], 0.000637 s⁻¹; in [17], 0.00141 s⁻¹; in [7], 0.00112 s⁻¹. Besides, the kon was found to be 4.17e+06 M⁻¹ s⁻¹ in assay [5]; 1.63e+06 M⁻¹ s⁻¹ in assay [10]; 734000 M⁻¹ s⁻¹ in assay [11]; 3.78e+06 M⁻¹ s⁻¹ in [12]; 3.18e+06 M⁻¹ s⁻¹ in [13]; 1.86e+06 M⁻¹ s⁻¹ in [14]. The on-rate (kon) in assay [15] was found to be 1.52e+06 M⁻¹ s⁻¹; in assay [2] it was 2.08e+06 M⁻¹ s⁻¹; in [17] it was 2.62e+06 M⁻¹ s⁻¹; in assay [7], 4.9e+06 M⁻¹ s⁻¹. Further, the “Median YL1-PE” value in assay [16] is 2340.

For B6, the Kd in [5] turned out to be 14.3 nM; in assay [10] it was 15.9 nM; in assay [13], 17.7 nM; in assay [15], 16.4 nM; in assay [2], 25.6 nM; in assay [7], 19.1 nM. The koff in assay [5] amounted to 0.0408 s⁻¹; in assay [10] it was 0.0411 s⁻¹; in assay [13], 0.045 s⁻¹; in assay [15], 0.032 s⁻¹; in [2], 0.025 s⁻¹; in assay [7] it was 0.0442 s⁻¹. For the same molecule, the kon in [5] came out at 2.95e+06 M⁻¹ s⁻¹; in assay [10] it was 2.58e+06 M⁻¹ s⁻¹; in [13] it was 2.86e+06 M⁻¹ s⁻¹; in [15], 1.94e+06 M⁻¹ s⁻¹; in [2], 980000 M⁻¹ s⁻¹; in assay [7], 2.47e+06 M⁻¹ s⁻¹. Moreover, the binding result with Peptide 5 is “no binding”; in [18] it was “no binding (tested: 10 ug/ml)”; in assay [19] it was “binds”; with Peptide 4, “no binding (tested: 1000 ng/ml)”; in the assay with Peptide 2, “no binding (tested: 1000 ng/ml)”; with Peptide 1, “no binding (tested: 1000 ng/ml)”. Besides, the binding result in the assay with Peptide 3 is reported as “no binding (tested: 1000 ng/ml)”; with Fz-Kr-Fc it was “binds”.

Turning to B7, the binding result in assay [20] is “binds”.
